Here are results for 1 sequence from patent publication US20220333113.

Where a chain is given by its changes, count along the chain named.

Holding throughout (test): filter
Common to all, as to conditions: J = PPdU at every J; SB18T0.01 + 1 mM DTT, 37 C

Data set [1] concerns the target T1, RIG-I H847A (Homo sapiens) (UniProt O95786).
T1 sequence: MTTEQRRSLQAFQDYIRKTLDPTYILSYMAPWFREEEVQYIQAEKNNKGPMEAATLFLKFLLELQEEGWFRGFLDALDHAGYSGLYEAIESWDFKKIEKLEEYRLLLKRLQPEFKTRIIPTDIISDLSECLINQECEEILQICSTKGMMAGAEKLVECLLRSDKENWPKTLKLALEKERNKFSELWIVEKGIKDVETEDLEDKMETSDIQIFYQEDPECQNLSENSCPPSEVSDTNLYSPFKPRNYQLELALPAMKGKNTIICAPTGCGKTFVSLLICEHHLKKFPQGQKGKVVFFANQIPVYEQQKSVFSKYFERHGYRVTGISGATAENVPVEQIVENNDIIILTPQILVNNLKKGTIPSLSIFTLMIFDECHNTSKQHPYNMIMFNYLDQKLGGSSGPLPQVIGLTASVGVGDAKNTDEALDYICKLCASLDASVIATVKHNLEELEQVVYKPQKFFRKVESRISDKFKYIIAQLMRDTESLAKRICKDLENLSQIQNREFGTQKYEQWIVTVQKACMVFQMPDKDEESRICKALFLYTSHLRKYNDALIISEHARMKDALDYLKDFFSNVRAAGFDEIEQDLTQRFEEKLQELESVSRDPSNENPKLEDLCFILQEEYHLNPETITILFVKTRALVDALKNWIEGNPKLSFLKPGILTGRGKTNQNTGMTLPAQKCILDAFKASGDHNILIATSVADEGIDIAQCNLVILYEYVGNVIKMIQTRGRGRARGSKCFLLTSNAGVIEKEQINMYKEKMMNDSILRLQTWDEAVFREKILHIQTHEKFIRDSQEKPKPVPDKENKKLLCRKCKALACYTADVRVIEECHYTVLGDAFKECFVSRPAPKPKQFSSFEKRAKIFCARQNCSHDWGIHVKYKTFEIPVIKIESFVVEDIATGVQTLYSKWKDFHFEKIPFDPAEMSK

For data set [2], the target named is T2, RIG-I K861A (Homo sapiens) (UniProt O95786).
T2 sequence: T1 sequence with A847H, K861A

The target in data set [3] is T3, RIG-I D872A (Homo sapiens) (UniProt O95786).
T3 sequence: T1 sequence with A847H, D872A

For “ATCTCTGTGTCATGTGTTTTAATGTCAGTTTAATGATGAGG [14832-55_8]”, the Kd worked out at 9.9 nM in data set [1], 0.89 nM in data set [2] and 0.61 nM in data set [3].

Broadly, the Kd is the equilibrium constant for the complex coming apart.
